Legend:
U10-25* dsDNA substrate = assay: Uracil excision assay, dsDNA preincubated with RPA-WT or RPA-ΔWH; format: biochemical; conditions: 100 nM U10-25* dsDNA
Protocol: (§1) 3′-FAM-labelled, PAGE-purified oligonucleotide substrates were from Sigma-Aldrich. Unless otherwise indicated, the substrate (25 nt) harboured uracil at position 10 in a polyC sequence to avoid secondary structures (U10-25*: […]-FAM). Double-stranded substrate was generated by annealing (heating followed by slow cooling) U10-25* to a non-labelled complementary oligo (A16-25: […]). All assays were performed at 22°C in 10 mM Tris–HCl pH 7.5, 50 mM NaCl, 1 mM DTT, 0.1 mM EDTA, 0.5 mg/ml BSA.
(§2) Varying amounts of UNG were then added, and the mixtures incubated for 10 min in a water bath. To avoid unspecific interactions and binding of enzyme and DNA to the assay tube surface, low-DNA binding tubes and excess of BSA was used in all reactions. Reactions were quenched and AP sites cleaved in 10% piperidine at 90°C for 20 min. Samples were dried by vacuum centrifugation and suspended in formamide-containing loading buffer. Product and substrate were separated in 12% PAGE/7M urea–0.5× TBE gels, bands visualised in ChemiDoc™ Imager (Bio-Rad) and quantified by Image Lab software (Bio-Rad). Importantly, all assays in which two parameters were compared (e.g. RPA-coated versus naked substrate or WT versus mutated protein) were performed in parallel with the exact same DNA/protein dilutions.

U10-25* ssDNA substrate = assay: Uracil excision assay, RPA-coated versus naked ssDNA; format: biochemical; conditions: 1 μM RPA, 100 nM U10-25* ssDNA; 10 min, 22°C; three independent experiments
Protocol: as §1, §2

B1: UNG-CD: catalytic UNG domain, starting at UNG2 aa 93, lacking the N-terminal RPA-binding helix (protein)
chain: GFGESWKKHLSGEFGKPYFIKLMGFVAEERKHYTVYPPPHQVFTWTQMCDIKDVKVVILGQDPYHGPNQAHGLCFSVQRPVPPPPSLENIYKELSTDIEDFVHPGHGDLSGWAKQGVLLLNAVLTVRAHQANSHKERGWEQFTDAVVSWLNQNSNGLVFLLWGSYAQKKGSAIDRKRHHVLQTAHPSPLSVYRGFFGCRHFSKTNELLQKSGKKPIDWKEL
**Q.** For B1, which “fold increased enzyme concentration to convert similar amounts of substrate in presence of RPA-WT” value (U10-25* dsDNA substrate; 500 nM RPA-WT) is on record?
**A.** ~200 fold

**Q.** And the “fold increased enzyme concentration to convert similar amounts of substrate in presence of RPA-ΔWH” value (U10-25* dsDNA substrate; 500 nM RPA-ΔWH)?
**A.** ~50 fold

**Q.** What about the “fold reduced activity with RPA-coated ssDNA compared to naked DNA substrate” value (U10-25* ssDNA substrate) of the same molecule?
**A.** 1000 fold
